Measurements from paper PMC5459902 (Scientific Reports, 2017).

Columns and labels:
[1] = test system: CC(C)[C@H](NC[C@@]1(O)OC[C@@H](O)[C@@H](O)[C@@H]1O)C(=O)O; assay: H2O2 formation, peroxidase-coupled 4-AA/TOOS spectrophotometric assay; type: biochemical, Parastagonospora nodorum; details: oxidase activity, O2 as electron acceptor, 10 mM potassium phosphate pH 7.0, 298 K, 25.0 °C
Excerpt: (§1) H2O2 formation, peroxidase-coupled 4-AA/TOOS spectrophotometric assay on PnFPOX

[2] = molecular target: T1, PnFPOX (Parastagonospora nodorum, UniProt Q0UIL6); assay: X-ray crystal structure, […] Å; type: binding; details: covalent; bond to Cys343
T1 construct: gene SNOG_08398; His-tagged, pET22b (NdeI/XhoI), E. coli BL21(DE3); HisTrap purified; 49 kDa on SDS-PAGE
T1 sequence (Q0UIL6 1-437): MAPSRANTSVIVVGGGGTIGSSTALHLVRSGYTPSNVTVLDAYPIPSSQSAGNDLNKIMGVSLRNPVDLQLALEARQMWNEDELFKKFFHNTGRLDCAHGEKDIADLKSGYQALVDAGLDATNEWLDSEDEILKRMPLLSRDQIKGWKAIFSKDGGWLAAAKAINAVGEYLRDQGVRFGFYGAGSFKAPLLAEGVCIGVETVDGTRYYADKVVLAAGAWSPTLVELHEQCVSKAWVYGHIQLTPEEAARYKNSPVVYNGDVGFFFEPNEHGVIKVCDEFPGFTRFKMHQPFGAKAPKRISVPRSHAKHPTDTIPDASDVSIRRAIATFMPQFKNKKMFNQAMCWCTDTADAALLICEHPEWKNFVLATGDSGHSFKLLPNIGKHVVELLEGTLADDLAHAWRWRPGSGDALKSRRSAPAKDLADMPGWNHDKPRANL

[3] = substrate: CC(C)[C@H](NC[C@@]1(O)OC[C@@H](O)[C@@H](O)[C@@H]1O)C(=O)O; assay: H2O2 formation, peroxidase-coupled 4-AA/TOOS spectrophotometric assay; type: biochemical, Parastagonospora nodorum; details: oxidase activity, O2 as electron acceptor, 10 mM potassium phosphate pH 7.0, 298 K, 25.0 °C; remark: listed apart in the source
Excerpt: as §1

Work on “PnFPOX (Parastagonospora nodorum SN15; D54N/N56A)” yielded a Km [1] of 46 ± 3.7 µM.

`Cc1cc2nc3c(=O)[nH]c(=O)nc-3n(C[C@H](O)[C@H](O)[C@H](O)COP(=O)(O)OP(=O)(O)OC[C@H]3O[C@@H](n4cnc5c(N)ncnc54)[C@H](O)[C@@H]3O)c2cc1C` [FAD] was tested, and the “X-ray crystal structure, 1.83 Å” value [2] was “A covalent bond is formed between FAD and Cys343 of PnFPOX”.

“PnFPOX (Parastagonospora nodorum SN15; D54A/N56A)” was tested, and the Km [1] was 14 ± 1.2 µM, the Vmax [1] was 0.078 µmol/min/mg and the Vmax/Km [1] was 5730 µL/min/mg.

B1: PnFPOX (Parastagonospora nodorum SN15) (protein)
chain: T1 sequence (Q0UIL6 1-437)
notes: His-tagged, pET22b (NdeI/XhoI), E. coli BL21(DE3); HisTrap purified; 49 kDa on SDS-PAGE
For B1, the Km [3] was 359 ± 6.2 µM, the Vmax [3] was 29.9 µmol/min/mg and the Vmax/Km [3] was 83300 µL/min/mg.
